Reference: PMC12508155 (Nature Communications, 2025)

Assays:
[1] = biological target: T1, MgdL (Vreelandella boliviensis, UniProt A0A265DXW6); test: LC-MS time course, coupled with MgdH; format: biochemical; conditions: N-(hydroxymethyl)guanidine formed in situ by MgdH from 0.5 mM methylguanidine with 5 mM 2-OG; MgdL 20 µg/mL
T1 construct: gene CE457_11615; full length, N-terminal 6xHis tag with TEV site (cleavage not mentioned), expressed in E. coli BL21
T1 sequence (A0A265DXW6 1-250): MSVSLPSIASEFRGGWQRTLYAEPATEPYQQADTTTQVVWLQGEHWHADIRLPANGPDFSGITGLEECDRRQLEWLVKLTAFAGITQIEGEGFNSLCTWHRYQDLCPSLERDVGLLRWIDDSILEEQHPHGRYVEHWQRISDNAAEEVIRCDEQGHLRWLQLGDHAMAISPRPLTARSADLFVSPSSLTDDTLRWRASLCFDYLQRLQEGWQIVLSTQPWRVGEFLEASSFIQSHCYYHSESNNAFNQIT

[2] = tested on: Gd-II riboswitch (guanidine class II riboswitch) (RNA, riboswitch) GCCCUAGGGACGACCCUAGAAGGCCAAGCAACCUGCGGGACGACCCGC; test: in-line probing; conditions: 100 mM KCl, 20 mM MgCl2, 50 mM Tris-HCl pH 8.3, 25 °C, 40 h; for apparent KD: Hill fit, two binding sites
[3] = substrate: O=C(O)CCC(=O)C(=O)O; test: oxygen consumption, Clark-type electrode; format: biochemical, Vreelandella boliviensis; conditions: methylguanidine fixed at 2.5 mM, Fe(II), ascorbate, MOPS pH 7.2, 30 °C
[4] = substrate: CN(C)C(=N)N; test: oxygen consumption, Clark-type electrode; format: biochemical, Vreelandella boliviensis; conditions: 2-OG 5 mM, Fe(II), ascorbate, MOPS pH 7.2, 30 °C
[5] = substrate: CNC(=N)N; test: oxygen consumption, Clark-type electrode; format: biochemical, Vreelandella boliviensis; conditions: 2-OG fixed at 10 mM (5 mM in Methods), Fe(II), ascorbate, MOPS pH 7.2, 30 °C

## N=C(N)NCO [N-(hydroxymethyl)guanidine]
[1]
  LC-MS time course, coupled with MgdH: its presence clearly accelerated the fragmentation of N-(hydroxymethyl)guanidine

## N=C(N)N
[2]
  apparent KD: 93 ± 6 µM

## CNC(=N)N
[2]
  apparent KD: 83 ± 5 µM

## CN(C)C(=N)N
[2]; no conformational change, highest concentration not in material
  binding: no

B1: MgdH (Vreelandella boliviensis LC1) (protein)
chain: MSQASNDLRLADFQAIPVIDIGDLLSGDLNARKAVAEQLGRAAREVGFFQMVGHGINPSLRQGLINQAKRFFAQPTETKMERYIGLYHHHRGYVPPGEESPDPNNPDMKEAFDLAFELPSDDPDVLAGTALLGPNPWPALEGFRQPVAAYYDAAYQVGRALMGGFALALGHEESHFLHHVTKPPSQLRLIHYPYNPDAEDAQGIGAHTDYECFTLLLPTAPGLEVMNGAGEWIDVPFRDDALVVNIGDMLEIWSNGEFVATSHRVRKVKEERYSFPLFFACDYHTVVAPLPELVKRHGQAFYPPLKAGDHLYAQTIQTFNYLRERLARGEIALPDGAREVGSLGQHGKHKETP
notes: full length, N-terminal 6xHis tag with TEV site (cleavage not mentioned), expressed in E. coli BL21, 41 kDa
[3]
  Km: 530 ± 50 µM
  kcat: 20.5 ± 0.5 s⁻¹
[4]
  Km: 250 ± 10 µM
  kcat: 17.3 ± 0.2 s⁻¹
[5]
  Km: 160 ± 10 µM
  kcat: 19.6 ± 0.4 s⁻¹
